Consider 4 molecules from patent US20160053277A1, “Compositions Having Dicamba Decarboxylase Activity and Methods of Use” (PIONEER HI-BRED INTERNATIONAL, INC., priority 2013, published 2016).

Data set [1] in a line: Saturation mutagenesis of SEQ ID NO:109: dicamba decarboxylation activity of point mutants (carbon dioxide released). The note with it: decarboxylation activity (carbon dioxide released) of point mutant compared with unmutated backbone protein; backbone SEQ ID NO: 109.
The nature of data set [2]: 14C assay with IPTG-induced recombinant E. coli cells: 14CO2 captured from [14C]-carboxyl-labeled dicamba. Particulars: for decarboxylation activity of dicamba: among the 108 sequences tested, recombinant E. coli cells; for Enzymatic Detection level: dicamba decarboxylation activity of the protein of the given SEQ ID NO, High / Low / No; for Dicamba Decarboxylase Activity: induced recombinant E. coli cells, [14C]-carboxyl-labeled dicamba, 14CO2 capture.

B1: 4 (protein, listed as Lactobacillus buchneri)
chain: MAKVITLEEHFSSQKLGQKMAEVLPKRPIGNVSPKMQDYMQRSLPPEAELEDVTGSRIQWMDQHQISMQILSYGNQNPQNSDPKFAVELTKLANDELAKAVAKAPDRFRAFASLPVSHPTDAAAELKRGVEELGFKGAMLVRPTSQAHPFFDDPFYLPIFEAAANLNVPVYLHPSFPDSQIIDYYYSNGPWDDKVSGILGTAGYGWHTDVGIQTVRLLLSGVFEKYPNLKLISGHWGEFASFALERMDQVMYPETNLSEPISKIYRDHVYVTPSGILTEPQLKFVKDEVGIEHLLYSIDYPYIKPENSGSFIESSPLTDEEKELFAHGNAEKLLQL
Take B1: the “Fold Activity” value in data set [1] is recorded as 1. In data set [2], the “decarboxylation activity of dicamba” value is “showed decarboxylation activity of dicamba”, the “Enzymatic Detection level” value is “High” and the “Dicamba Decarboxylase Activity” value is given as “High”.

B2: 89 (protein, listed as Erwinia billingiae)
chain: MATNRRDFLKNATAVMAGSTVFAGSSHFASAAAVEPAAVQPPRRIIALEEHFMLPEFVGYLHETQQNLRNGLVDKVVTPLSDFGKGRLEIMDKNGVDFAVLSLSGPGVQAEPDRVKAVRLARYANDKLATEMQKNPRRYGGFAHLAMQDPLAAANELERCVKQLHMQGGMINGETDGLYLDDRRYDVFWERVEALNVPIYIHPGNPPDYPHMFAGHPEMWGPVWSWAVETCSHALRLIFSGTFDRYPGARVILGHMGETLPIQLWRLDSRYQIANQTFAIKHPPSWYAKKNITITTSGVCNDAALRCALDSMGSENVMFSIDYPFESTEIAVNWLKTANITEQERNAVAWGNATSILRLGA
Regarding B2, the “Fold Activity” value in data set [1] was 3.1. Also, in data set [2], the “decarboxylation activity of dicamba” value was “showed decarboxylation activity of dicamba”, the “Enzymatic Detection level” value is “High” and the “Dicamba Decarboxylase Activity” value is recorded as “High”.

B3: 88 (protein, listed as Starkeya novella)
chain: MARKIALEEHFTTPELAGKYVARPTQSDALFADIERRLADFDELRLEMMDRAEIDLMVLSVTTPGVQGVRDTGEAIRLARGANDFLAREVQKRPSRYAGFAHLAMQDAEAAATELERAVRELGFRGALINGQTNGHYLDEDQYAPFWERVQELDVPVYLHPGNMADSPAMFAHRPELGGPIWAWTAETAAHALRLVFGGTFTRFPGAKVILGHMGETLPFLLWRLDSRREFDLGEKLAPDALPSAIIKRNIAVTTSGVCDPAPLVAALQALSDDNVMFSVDYPYEDPQLASKFIETAPIGEETRAKVCHGNAERLLGL
As for B3, in data set [1], the “Fold Activity” value was determined as 1.3. Besides, in data set [2], the “decarboxylation activity of dicamba” value is on record as “showed decarboxylation activity of dicamba”, the “Enzymatic Detection level” value is on record as “High” and the “Dicamba Decarboxylase Activity” value is recorded as “High”.

B4: 92 (protein, listed as Chitinophaga pinensis)
chain: MARIVTLEEHVSFPEMTALLPEEILKNRKQSGAALQMQEKLADITGERLTSMKAAGISMQVLSVENTDVYLLPDSLAPAFAAKYNDLLADKISSHSDAFAAFAMLPMTVPEAAADELERAVKTHGFCGAMIKGLINGVFLDAPKFAPVFACAEKLGVPLYIHPGIPPKEVIDAYYSNVGDTKGPNEAIACYGWGWHSETAIHILRLLAAGIFDKYPQLNIIIGHMGEMLPMMWERSNRVFQPGNNGKNQRTLIETFRKQLYITTSGIFTQPPLQIAIDTIGIDNILFSIDYPFSSNQMGIDFLTKAALPAEQLAKMAHGNADRILKF
For the molecule B4, in data set [1], the “Fold Activity” value was determined as 1.7. In addition, in data set [2], the “decarboxylation activity of dicamba” value is “showed decarboxylation activity of dicamba”, the “Enzymatic Detection level” value is listed as “High” and the “Dicamba Decarboxylase Activity” value is reported as “Yes”.
